In US20240376214A1, “ANTI-C-MET ANTIBODIES AND ANTIBODY-DRUG CONJUGATES” (BYONDIS B.V., priority 2021, published 2024):

Experiments:
[1] = target: human c-Met (HGFR), full length, on the cell surface (human) (UniProt P08581); assay: cell-based or functional assay
[2] = target: T1, human c-Met (HGFR), full length, on the cell surface (human, UniProt P08581 25-1390); assay: cell-based or functional assay
[3] = target: T1, human c-Met (HGFR), full length, on the …; assay: flow cytometry, MKN45 cells, without HGF
Method: (§1) Cellular binding of the in total 75 humanized anti-c-Met antibodies (originating from the three selected chimeric antibodies) was studied in human c-Met-positive tumor cell lines MKN45, NCI-H596 and PC-3, rhesus c-Met-positive tumor cell line 4 MBr-5, and human c-Met-negative tumor cell line MDA-MB-175-VII. Cells were used around 90% of confluence at the time of an assay, detached with Trypsin-Versene (EDTA) (Lonza) for 5-10 minutes, washed and adjusted to a concentration of 1×10⁶ cells/mL in ice-cold FACS buffer (PBS 1×, 0.1% v/w BSA, 0.02% v/v sodium azide (NaN₃)). Staining was performed in 96-well round-bottomed microtiter plates using ice-cold reagents/solutions at 4° C. to prevent the modulation and internalization of surface antigens. 100,000 cells/well were added to 96-well plates (100 μL/well) and centrifuged at 300×g for 3 minutes. In case of pre-incubation with HGF, the cells were resuspended in 50 ng/mL recombinant human HGF in FACS buffer (50 μL/well) and incubated for 30 minutes at 4° C., followed by two wash steps with 150 μL FACS buffer. Supernatant was discarded and cells were stained for 30 minutes with 50 μL of each antibody. Serial dilutions were made in ice-cold FACS buffer. Cells were washed twice by centrifugation at 300×g for 3 minutes and resuspended in 50 μL 6000-times diluted secondary F(ab′)₂ goat anti-human IgG (Fc fragment specific) antibody APC-conjugated (Jackson ImmunoResearch). Following a 30-minute incubation on ice, cells were washed again 2 times and resuspended in 150 μL ice-cold FACS buffer for FACS analysis. For analysis of the data, the Median Fluorescence Intensity (MFI) values were obtained.

[4] = target: T2, rhesus c-Met on 4MBr-5 cells (rhesus, UniProt F7H1K4 25-1381, Natural c-Met is cleaved at the furin site (KRKKR/S) into disulphide-linked alpha and beta subunits; given here as one mature polypeptide.); assay: flow cytometry, 4MBr-5 cells pre-incubated with 50 ng/mL HGF
T2 construct: also called rhesus c-Met antigen
T2 sequence (F7H1K4 entry or part of it limits assumed): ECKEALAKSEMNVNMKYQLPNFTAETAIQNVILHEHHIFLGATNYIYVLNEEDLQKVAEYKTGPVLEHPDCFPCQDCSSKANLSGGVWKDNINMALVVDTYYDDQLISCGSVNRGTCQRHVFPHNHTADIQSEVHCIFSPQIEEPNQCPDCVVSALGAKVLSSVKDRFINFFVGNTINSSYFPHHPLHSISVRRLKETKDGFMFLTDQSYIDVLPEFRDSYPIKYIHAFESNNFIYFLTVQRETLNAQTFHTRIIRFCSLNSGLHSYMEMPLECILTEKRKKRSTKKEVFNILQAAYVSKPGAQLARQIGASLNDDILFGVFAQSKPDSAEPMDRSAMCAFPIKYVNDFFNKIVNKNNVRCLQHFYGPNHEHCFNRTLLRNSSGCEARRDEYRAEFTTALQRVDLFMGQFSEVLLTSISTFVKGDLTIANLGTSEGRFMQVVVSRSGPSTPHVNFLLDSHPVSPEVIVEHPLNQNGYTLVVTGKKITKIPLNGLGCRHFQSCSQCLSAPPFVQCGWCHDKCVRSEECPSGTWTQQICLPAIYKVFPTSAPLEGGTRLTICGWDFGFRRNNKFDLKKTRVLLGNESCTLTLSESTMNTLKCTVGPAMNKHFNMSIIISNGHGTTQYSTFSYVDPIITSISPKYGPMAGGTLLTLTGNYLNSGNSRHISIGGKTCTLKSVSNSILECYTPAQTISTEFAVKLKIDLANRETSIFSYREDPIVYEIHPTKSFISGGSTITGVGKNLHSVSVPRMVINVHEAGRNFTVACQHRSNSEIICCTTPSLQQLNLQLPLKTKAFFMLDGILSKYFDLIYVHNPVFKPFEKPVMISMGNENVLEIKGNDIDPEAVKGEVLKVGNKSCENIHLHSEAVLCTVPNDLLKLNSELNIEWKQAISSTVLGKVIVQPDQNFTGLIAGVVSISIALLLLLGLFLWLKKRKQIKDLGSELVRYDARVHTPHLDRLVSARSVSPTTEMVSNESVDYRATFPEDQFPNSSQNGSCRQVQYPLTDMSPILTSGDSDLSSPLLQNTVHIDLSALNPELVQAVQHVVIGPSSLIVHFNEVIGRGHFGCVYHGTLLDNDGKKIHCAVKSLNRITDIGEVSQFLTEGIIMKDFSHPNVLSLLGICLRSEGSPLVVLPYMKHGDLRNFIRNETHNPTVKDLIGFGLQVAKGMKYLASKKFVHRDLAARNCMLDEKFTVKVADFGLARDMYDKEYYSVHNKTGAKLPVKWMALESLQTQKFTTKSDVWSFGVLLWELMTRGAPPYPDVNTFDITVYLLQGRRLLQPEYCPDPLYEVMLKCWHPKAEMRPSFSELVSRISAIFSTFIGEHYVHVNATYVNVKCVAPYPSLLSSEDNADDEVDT
Method: as §1

[5] = target: T2, rhesus c-Met on 4MBr-5 cells; assay: flow cytometry, 4MBr-5 cells; EC50 with 50 ng/mL HGF against EC50 without HGF
Method: as §1

[6] = target: T1, human c-Met (HGFR), full length, on the …; assay: flow cytometry, PC-3 cells pre-incubated with 50 ng/mL HGF
Method: as §1

[7] = target: T1, human c-Met (HGFR), full length, on the …; assay: flow cytometry, PC-3 cells; EC50 with 50 ng/mL HGF against EC50 without HGF
Method: as §1

[8] = target: T1, human c-Met (HGFR), full length, on the …; assay: flow cytometry, NCI-H596 cells; EC50 with 50 ng/mL HGF against EC50 without HGF
Method: as §1

[9] = target: T2, rhesus c-Met on 4MBr-5 cells; assay: flow cytometry, 4MBr-5 cells, without HGF
Method: as §1

[10] = target: T1, human c-Met (HGFR), full length, on the …; assay: flow cytometry, PC-3 cells, without HGF
Method: as §1

[11] = target: T1, human c-Met (HGFR), full length, on the …; assay: flow cytometry, NCI-H596 cells, without HGF
Method: as §1

[12] = target: T1, human c-Met (HGFR), full length, on the …; assay: flow cytometry, NCI-H596 cells pre-incubated with 50 ng/mL HGF
Method: as §1

human c-Met (HGFR), full length, on the cell surface (human), sequence (P08581 25-1390 limits assumed): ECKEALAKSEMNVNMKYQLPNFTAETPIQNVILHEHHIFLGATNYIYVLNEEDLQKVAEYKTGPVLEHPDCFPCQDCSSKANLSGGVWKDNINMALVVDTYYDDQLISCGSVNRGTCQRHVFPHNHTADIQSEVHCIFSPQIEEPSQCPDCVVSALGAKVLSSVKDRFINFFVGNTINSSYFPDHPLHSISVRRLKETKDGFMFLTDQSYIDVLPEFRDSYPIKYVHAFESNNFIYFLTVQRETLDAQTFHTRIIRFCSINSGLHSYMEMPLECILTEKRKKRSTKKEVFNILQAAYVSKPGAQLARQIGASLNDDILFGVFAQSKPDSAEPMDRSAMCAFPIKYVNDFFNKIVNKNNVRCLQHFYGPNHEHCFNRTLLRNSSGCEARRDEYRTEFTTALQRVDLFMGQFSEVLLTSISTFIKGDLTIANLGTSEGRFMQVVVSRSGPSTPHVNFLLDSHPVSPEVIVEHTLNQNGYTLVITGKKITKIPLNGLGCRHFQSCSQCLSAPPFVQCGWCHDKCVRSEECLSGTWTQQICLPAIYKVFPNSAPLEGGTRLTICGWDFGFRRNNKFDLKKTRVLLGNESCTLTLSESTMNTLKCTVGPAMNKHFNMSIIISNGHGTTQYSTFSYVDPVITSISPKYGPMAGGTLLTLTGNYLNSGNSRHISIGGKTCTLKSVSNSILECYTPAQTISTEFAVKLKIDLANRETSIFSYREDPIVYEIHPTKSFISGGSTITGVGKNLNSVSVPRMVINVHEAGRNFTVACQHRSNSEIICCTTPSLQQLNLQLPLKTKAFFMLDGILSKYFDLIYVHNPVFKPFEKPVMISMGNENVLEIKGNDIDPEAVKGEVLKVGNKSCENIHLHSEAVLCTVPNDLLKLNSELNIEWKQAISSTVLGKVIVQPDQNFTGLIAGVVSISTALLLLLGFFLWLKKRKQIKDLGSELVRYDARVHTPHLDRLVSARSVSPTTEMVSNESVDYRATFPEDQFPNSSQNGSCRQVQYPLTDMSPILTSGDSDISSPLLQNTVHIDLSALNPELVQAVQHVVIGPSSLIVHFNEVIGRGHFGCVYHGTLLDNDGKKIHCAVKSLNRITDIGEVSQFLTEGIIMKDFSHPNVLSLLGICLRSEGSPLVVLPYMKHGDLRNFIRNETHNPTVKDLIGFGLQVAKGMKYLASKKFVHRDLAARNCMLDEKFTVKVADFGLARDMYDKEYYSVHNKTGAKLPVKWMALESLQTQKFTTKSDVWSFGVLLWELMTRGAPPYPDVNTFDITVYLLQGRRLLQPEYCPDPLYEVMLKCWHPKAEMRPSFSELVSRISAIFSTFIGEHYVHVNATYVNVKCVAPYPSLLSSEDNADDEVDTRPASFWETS
T1 sequence (P08581 25-1390 limits assumed): as above

Row | Molecule | EC50 [3] | EC50 [4] | Fold shift (HGF) [5] | EC50 [6] | Fold shift (HGF) [7] | Fold shift (HGF) [8] | EC50 [9] | EC50 [10] | EC50 [11] | EC50 [12] | other results
1 | non-binding control ADC (rituximab-vc-seco-DUBA) (antibody) |  |  |  |  |  |  |  |  |  |  | Efficacy (%), in vitro cytotoxicity, MKN-45, -HGF [1]: 0%; Efficacy (%), in vitro cytotoxicity, NCI-H596, +HGF [1]: 18%; Efficacy (%), in vitro cytotoxicity, NCI-H596, -HGF [1]: 7%; Efficacy (%), in vitro cytotoxicity, PC-3, +HGF [1]: 36%; Efficacy (%), in vitro cytotoxicity, PC-3, -HGF [1]: 36%; IC50, in vitro cytotoxicity, MKN-45, -HGF [1]: > 10 nM; IC50, in vitro cytotoxicity, NCI-H596, +HGF [1]: > 10 nM; IC50, in vitro cytotoxicity, NCI-H596, -HGF [1]: > 10 nM; IC50, in vitro cytotoxicity, PC-3, +HGF [1]: > 10 nM; IC50, in vitro cytotoxicity, PC-3, -HGF [1]: > 10 nM
2 | ADC2 (antibody, human IgG1, kappa, V domains shown, vc-seco-DUBA linker-drug on the engineered cysteine at HC position 41 (Kabat); DAR 1.7) VH: QVQLQQSGAELVRPGASVKLSCKASGYVFPDYEMHWVKQTCVHGLEWIGAFDPETGDTTYNQNFKGKATLTADKASSTAYMDLRSLTSGDSAVYYCARDYKYLYYYAMDNWGQGTSVTVSS VL: QIVLTQSPAIMSASLGERVTMTCTASSSITSSYLHWYQQKPGSSPKLWIYSTTNLASGVPGRFSGSGSGTSFSLTISSMEAEDAATYYCHQYRRSPLTFGAGTKLELKR |  |  |  |  |  |  |  |  |  |  | Efficacy (%), in vitro cytotoxicity, MKN-45, -HGF [2]: 76%; Efficacy (%), in vitro cytotoxicity, NCI-H596, +HGF [2]: 32%; Efficacy (%), in vitro cytotoxicity, NCI-H596, -HGF [2]: 6%; Efficacy (%), in vitro cytotoxicity, PC-3, +HGF [2]: 69%; Efficacy (%), in vitro cytotoxicity, PC-3, -HGF [2]: 69%; IC50 1, in vitro cytotoxicity, PC-3, -HGF [2]: 0.05 nM; IC50 2, in vitro cytotoxicity, PC-3, -HGF [2]: 84 nM; IC50, in vitro cytotoxicity, MKN-45, -HGF [2]: 0.44 nM; IC50, in vitro cytotoxicity, NCI-H596, +HGF [2]: > 10 nM; IC50, in vitro cytotoxicity, NCI-H596, -HGF [2]: > 10 nM; IC50, in vitro cytotoxicity, PC-3, +HGF [2]: ~10 nM
3 | mAb3c (antibody, human IgG1, kappa, V domains shown, Humanized IgG1 kappa, HC-41C, from wt/41C-chi-mAb3; also called humanized HC-41C antibody mAb3c) VH: QVQLVQSGAEVKKPGASVKVSCKASGYTFTDYYLNWVRQACGQGLEWMGLIFPGNDKTEYSEKFKGRVTLTTDTSISTAYMELSSLTSDDTALYYCSGGDYGGFVYWGQGTLVTVSS VL: DIQMTQSPSSLSASVGDRVTITCGASENIYGALNWYQQKPGKAPKLLIYGATNLADGVPSRFSGSGSGTDFTLTISSLQPEDVATYYCQNVLSSPLTFGSGTKLEIKR | 0.05 µg/mL | 0.03 µg/mL | 1.7 fold | 0.06 µg/mL | 1.9 fold | 5.5 fold | 0.02 µg/mL | 0.03 µg/mL | 0.02 µg/mL | 0.11 µg/mL | 
4 | mAb3e (antibody, human IgG1, kappa, V domains shown, Humanized IgG1 kappa, HC-41C, from wt/41C-chi-mAb3; also called humanized HC-41C antibody mAb3e) VH: QVQLQESGAEVKKPGASVKVSCKASGYTFTDYYLNWVRQACGQGLEWMGLIFPGNDKTEYSEKFKGRVTMTRDTSTSTVYMELSSLRSEDTAVYYCSGGDYGGFVYWGQGTLVTVSS VL: DIQMTQSPSSLSASVGDRVTITCGASENIYGALNWYQQKPGKAPKLLIYGATNLADGVPSRFSGSGSGTDFTLTISSLQPEDVATYYCQNVLSSPLTFGSGTKLEIKR | 0.07 µg/mL | 0.04 µg/mL | 1.4 fold | 0.09 µg/mL | 2.8 fold | 7 fold | 0.03 µg/mL | 0.03 µg/mL | 0.02 µg/mL | 0.14 µg/mL | 
5 | mAb3a (antibody, human IgG1, kappa, V domains shown, Humanized IgG1 kappa, HC-41C, from wt/41C-chi-mAb3; also called humanized HC-41C antibody mAb3a) VH: QVQLVQSGAEVKKPGASVKVSCKASGYTFTDYYLNWVRQACGQGLEWMGLIFPGNDKTEYSEKFKGRVTLTTDTSISTAYMELSSLTSDDTALYYCSGGDYGGFVYWGQGTLVTVSS VL: DIQLTQSPSSLSASVGDRVTITCGASENIYGALNWYQQKPGKAPKLLIYGATNLADGVPSRFSGSGSGTDFTLTISSLQPEDFATYYCQNVLSSPLTFGPGTKVDIKR | 0.07 µg/mL | 0.03 µg/mL | 0.8 fold | 0.07 µg/mL | 2.4 fold | 4 fold | 0.04 µg/mL | 0.03 µg/mL | 0.02 µg/mL | 0.08 µg/mL | 
